Reference: US20240270846A1 (published 2024)

target: T1, CD3 epsilon homodimer protein (UniProt P07766 23-126); assay: SPR Biacore T200, CD3e homodimer on chip, antibody analyte;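 further: CD3 epsilon homodimer amine-coupled on CM4 sensor chip, antibodies injected as analyte at 25 °C in HBS-EP+, ratio ≥0.8 taken as binding retained versus unaltered parent antibody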
T1 construct: Construct of the homodimer is not described; also called CD3 (CD3 epsilon)
T1 sequence (P07766 23-126): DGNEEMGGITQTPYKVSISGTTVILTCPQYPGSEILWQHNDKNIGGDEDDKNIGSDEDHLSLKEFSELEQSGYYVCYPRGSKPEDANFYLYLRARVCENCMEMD

Binder | ratio of amounts bound (altered form/GLS3000)
GLS3000 H34R one-arm antibody (antibody, human IgG1, kappa, L234A L235A, N297A, name in Kabat numbering) light: DIVMTQSPLSLPVTPGEPASISCRSSQSLVHSNRNTYLRWYQQKPGQAPRLLIYKVSNRFSGVPDRFSGSGSGTDFTLKISRVEAEDVGVYYCGQGTQVPYTFGQGTKLEIKRTVAAPSVFIFPPSDEQLKSGTASVVCLLNNFYPREAKVQWKVDNALQSGNSQESVTEQDSKDSTYSLSSTLTLSKADYEKHKVYACEVTHQGLSSPVTKSFNRGEC heavy: QVQLVESGGGVVQPGRSLRLSCAASGFTFSNAWMHWVRQAPGKGLEWVAQIKAKSNNYATYYAESVKGRFTISRDDSKNSLYLQMNSLKTEDTAVYYCRYVHYGAYYGVDAWGQGTTVTVSSASTKGPSVFPLAPSSKSTSGGTAALGCLVKDYFPEPVTVSWNSGALTSGVHTFPAVLQSSGLYSLSSVVTVPSSSLGTQTYICNVNHKPSNTKVDKKVEPKSCDKTHTCPPCPAPEAAGGPSVFLFPPKPKDTLMISRTPEVTCVVVDVSHEDPEVKFNWYVDGVEVHNAKTKPREEQYASTYRVVSVLTVLHQDWLNGKEYKCKVSNKALPAPIEKTISKAKGQPREPQVYTLPPSRCELTKNQVSLSCAVKGFYPSDIAVEWESNGQPENNYKTTPPVLDSDGSFFLVSKLTVDKSRWQQGNVFSCSVMHEALHNHYTQKSLSLSPDYKDDDDK EPKSSDKTHTCPPCPAPELLGGPSVFLFPPKPKDTLMISRTPEVTCVVVDVSHEDPEVKFNWYVDGVEVHNAKTKPREEQYNSTYRVVSVLTVLHQDWLNGKEYKCKVSNKALPAPIEKTISKAKGQPREPQVCTLPPSRDELTKNQVSLWCLVKGFYPSDIAVEWESNGQPENNYKTTPPVLDSDGSFFLYSKLTVDKSRWQQGNVFSCSVMHEALHNRYTQKSLSLSP | 0.2
GLS3000 H34S one-arm antibody (antibody, human IgG1, kappa, L234A L235A, N297A, name in Kabat numbering) light: DIVMTQSPLSLPVTPGEPASISCRSSQSLVHSNRNTYLSWYQQKPGQAPRLLIYKVSNRFSGVPDRFSGSGSGTDFTLKISRVEAEDVGVYYCGQGTQVPYTFGQGTKLEIKRTVAAPSVFIFPPSDEQLKSGTASVVCLLNNFYPREAKVQWKVDNALQSGNSQESVTEQDSKDSTYSLSSTLTLSKADYEKHKVYACEVTHQGLSSPVTKSFNRGEC heavy: QVQLVESGGGVVQPGRSLRLSCAASGFTFSNAWMHWVRQAPGKGLEWVAQIKAKSNNYATYYAESVKGRFTISRDDSKNSLYLQMNSLKTEDTAVYYCRYVHYGAYYGVDAWGQGTTVTVSSASTKGPSVFPLAPSSKSTSGGTAALGCLVKDYFPEPVTVSWNSGALTSGVHTFPAVLQSSGLYSLSSVVTVPSSSLGTQTYICNVNHKPSNTKVDKKVEPKSCDKTHTCPPCPAPEAAGGPSVFLFPPKPKDTLMISRTPEVTCVVVDVSHEDPEVKFNWYVDGVEVHNAKTKPREEQYASTYRVVSVLTVLHQDWLNGKEYKCKVSNKALPAPIEKTISKAKGQPREPQVYTLPPSRCELTKNQVSLSCAVKGFYPSDIAVEWESNGQPENNYKTTPPVLDSDGSFFLVSKLTVDKSRWQQGNVFSCSVMHEALHNHYTQKSLSLSPDYKDDDDK EPKSSDKTHTCPPCPAPELLGGPSVFLFPPKPKDTLMISRTPEVTCVVVDVSHEDPEVKFNWYVDGVEVHNAKTKPREEQYNSTYRVVSVLTVLHQDWLNGKEYKCKVSNKALPAPIEKTISKAKGQPREPQVCTLPPSRDELTKNQVSLWCLVKGFYPSDIAVEWESNGQPENNYKTTPPVLDSDGSFFLYSKLTVDKSRWQQGNVFSCSVMHEALHNRYTQKSLSLSP | 0.78
GLS3000 H34V one-arm antibody (antibody, human IgG1, kappa, L234A L235A, N297A, name in Kabat numbering) light: DIVMTQSPLSLPVTPGEPASISCRSSQSLVHSNRNTYLVWYQQKPGQAPRLLIYKVSNRFSGVPDRFSGSGSGTDFTLKISRVEAEDVGVYYCGQGTQVPYTFGQGTKLEIKRTVAAPSVFIFPPSDEQLKSGTASVVCLLNNFYPREAKVQWKVDNALQSGNSQESVTEQDSKDSTYSLSSTLTLSKADYEKHKVYACEVTHQGLSSPVTKSFNRGEC heavy: QVQLVESGGGVVQPGRSLRLSCAASGFTFSNAWMHWVRQAPGKGLEWVAQIKAKSNNYATYYAESVKGRFTISRDDSKNSLYLQMNSLKTEDTAVYYCRYVHYGAYYGVDAWGQGTTVTVSSASTKGPSVFPLAPSSKSTSGGTAALGCLVKDYFPEPVTVSWNSGALTSGVHTFPAVLQSSGLYSLSSVVTVPSSSLGTQTYICNVNHKPSNTKVDKKVEPKSCDKTHTCPPCPAPEAAGGPSVFLFPPKPKDTLMISRTPEVTCVVVDVSHEDPEVKFNWYVDGVEVHNAKTKPREEQYASTYRVVSVLTVLHQDWLNGKEYKCKVSNKALPAPIEKTISKAKGQPREPQVYTLPPSRCELTKNQVSLSCAVKGFYPSDIAVEWESNGQPENNYKTTPPVLDSDGSFFLVSKLTVDKSRWQQGNVFSCSVMHEALHNHYTQKSLSLSPDYKDDDDK EPKSSDKTHTCPPCPAPELLGGPSVFLFPPKPKDTLMISRTPEVTCVVVDVSHEDPEVKFNWYVDGVEVHNAKTKPREEQYNSTYRVVSVLTVLHQDWLNGKEYKCKVSNKALPAPIEKTISKAKGQPREPQVCTLPPSRDELTKNQVSLWCLVKGFYPSDIAVEWESNGQPENNYKTTPPVLDSDGSFFLYSKLTVDKSRWQQGNVFSCSVMHEALHNRYTQKSLSLSP | 0.85
GLS3000 H34T one-arm antibody (antibody, human IgG1, kappa, L234A L235A, N297A, name in Kabat numbering) light: DIVMTQSPLSLPVTPGEPASISCRSSQSLVHSNRNTYLTWYQQKPGQAPRLLIYKVSNRFSGVPDRFSGSGSGTDFTLKISRVEAEDVGVYYCGQGTQVPYTFGQGTKLEIKRTVAAPSVFIFPPSDEQLKSGTASVVCLLNNFYPREAKVQWKVDNALQSGNSQESVTEQDSKDSTYSLSSTLTLSKADYEKHKVYACEVTHQGLSSPVTKSFNRGEC heavy: QVQLVESGGGVVQPGRSLRLSCAASGFTFSNAWMHWVRQAPGKGLEWVAQIKAKSNNYATYYAESVKGRFTISRDDSKNSLYLQMNSLKTEDTAVYYCRYVHYGAYYGVDAWGQGTTVTVSSASTKGPSVFPLAPSSKSTSGGTAALGCLVKDYFPEPVTVSWNSGALTSGVHTFPAVLQSSGLYSLSSVVTVPSSSLGTQTYICNVNHKPSNTKVDKKVEPKSCDKTHTCPPCPAPEAAGGPSVFLFPPKPKDTLMISRTPEVTCVVVDVSHEDPEVKFNWYVDGVEVHNAKTKPREEQYASTYRVVSVLTVLHQDWLNGKEYKCKVSNKALPAPIEKTISKAKGQPREPQVYTLPPSRCELTKNQVSLSCAVKGFYPSDIAVEWESNGQPENNYKTTPPVLDSDGSFFLVSKLTVDKSRWQQGNVFSCSVMHEALHNHYTQKSLSLSPDYKDDDDK EPKSSDKTHTCPPCPAPELLGGPSVFLFPPKPKDTLMISRTPEVTCVVVDVSHEDPEVKFNWYVDGVEVHNAKTKPREEQYNSTYRVVSVLTVLHQDWLNGKEYKCKVSNKALPAPIEKTISKAKGQPREPQVCTLPPSRDELTKNQVSLWCLVKGFYPSDIAVEWESNGQPENNYKTTPPVLDSDGSFFLYSKLTVDKSRWQQGNVFSCSVMHEALHNRYTQKSLSLSP | 0.89

Continued, values first:

ratio of amounts bound (altered form/GLS3000) | Binder
0.24 | GLS3000 H34W one-arm antibody (antibody, human IgG1, kappa, L234A L235A, N297A, name in Kabat numbering) light: DIVMTQSPLSLPVTPGEPASISCRSSQSLVHSNRNTYLWWYQQKPGQAPRLLIYKVSNRFSGVPDRFSGSGSGTDFTLKISRVEAEDVGVYYCGQGTQVPYTFGQGTKLEIKRTVAAPSVFIFPPSDEQLKSGTASVVCLLNNFYPREAKVQWKVDNALQSGNSQESVTEQDSKDSTYSLSSTLTLSKADYEKHKVYACEVTHQGLSSPVTKSFNRGEC heavy: QVQLVESGGGVVQPGRSLRLSCAASGFTFSNAWMHWVRQAPGKGLEWVAQIKAKSNNYATYYAESVKGRFTISRDDSKNSLYLQMNSLKTEDTAVYYCRYVHYGAYYGVDAWGQGTTVTVSSASTKGPSVFPLAPSSKSTSGGTAALGCLVKDYFPEPVTVSWNSGALTSGVHTFPAVLQSSGLYSLSSVVTVPSSSLGTQTYICNVNHKPSNTKVDKKVEPKSCDKTHTCPPCPAPEAAGGPSVFLFPPKPKDTLMISRTPEVTCVVVDVSHEDPEVKFNWYVDGVEVHNAKTKPREEQYASTYRVVSVLTVLHQDWLNGKEYKCKVSNKALPAPIEKTISKAKGQPREPQVYTLPPSRCELTKNQVSLSCAVKGFYPSDIAVEWESNGQPENNYKTTPPVLDSDGSFFLVSKLTVDKSRWQQGNVFSCSVMHEALHNHYTQKSLSLSPDYKDDDDK EPKSSDKTHTCPPCPAPELLGGPSVFLFPPKPKDTLMISRTPEVTCVVVDVSHEDPEVKFNWYVDGVEVHNAKTKPREEQYNSTYRVVSVLTVLHQDWLNGKEYKCKVSNKALPAPIEKTISKAKGQPREPQVCTLPPSRDELTKNQVSLWCLVKGFYPSDIAVEWESNGQPENNYKTTPPVLDSDGSFFLYSKLTVDKSRWQQGNVFSCSVMHEALHNRYTQKSLSLSP
0.59 | GLS3000 H34Y one-arm antibody (antibody, human IgG1, kappa, L234A L235A, N297A, name in Kabat numbering) light: DIVMTQSPLSLPVTPGEPASISCRSSQSLVHSNRNTYLYWYQQKPGQAPRLLIYKVSNRFSGVPDRFSGSGSGTDFTLKISRVEAEDVGVYYCGQGTQVPYTFGQGTKLEIKRTVAAPSVFIFPPSDEQLKSGTASVVCLLNNFYPREAKVQWKVDNALQSGNSQESVTEQDSKDSTYSLSSTLTLSKADYEKHKVYACEVTHQGLSSPVTKSFNRGEC heavy: QVQLVESGGGVVQPGRSLRLSCAASGFTFSNAWMHWVRQAPGKGLEWVAQIKAKSNNYATYYAESVKGRFTISRDDSKNSLYLQMNSLKTEDTAVYYCRYVHYGAYYGVDAWGQGTTVTVSSASTKGPSVFPLAPSSKSTSGGTAALGCLVKDYFPEPVTVSWNSGALTSGVHTFPAVLQSSGLYSLSSVVTVPSSSLGTQTYICNVNHKPSNTKVDKKVEPKSCDKTHTCPPCPAPEAAGGPSVFLFPPKPKDTLMISRTPEVTCVVVDVSHEDPEVKFNWYVDGVEVHNAKTKPREEQYASTYRVVSVLTVLHQDWLNGKEYKCKVSNKALPAPIEKTISKAKGQPREPQVYTLPPSRCELTKNQVSLSCAVKGFYPSDIAVEWESNGQPENNYKTTPPVLDSDGSFFLVSKLTVDKSRWQQGNVFSCSVMHEALHNHYTQKSLSLSPDYKDDDDK EPKSSDKTHTCPPCPAPELLGGPSVFLFPPKPKDTLMISRTPEVTCVVVDVSHEDPEVKFNWYVDGVEVHNAKTKPREEQYNSTYRVVSVLTVLHQDWLNGKEYKCKVSNKALPAPIEKTISKAKGQPREPQVCTLPPSRDELTKNQVSLWCLVKGFYPSDIAVEWESNGQPENNYKTTPPVLDSDGSFFLYSKLTVDKSRWQQGNVFSCSVMHEALHNRYTQKSLSLSP
